Fewer inactive variants are shown than the library holds.
What was measured:
biotinyl-Val-oxazolone = experiment: self-aminoacylation, catalytic enhancement (BVO) (fold over background); higher = more active; k-Seq, kA / k0A0; sequences stand for … in GGGAAUGGAUCCACAUCUACGAAUUC…UUCACUGCAGACUUGACGAAGCUG
Outline: (§1)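 Working in 50 μL HEPES/NaCl/KCl/MgCl2/CaCl2 buffer with 5% acetonitrile at pH 6.9–7.0, mutagenized RNA pools (0.43 μM; 21-nt variable region) were reacted with 2–1250 μM of each biotinyl-aminoacyl-oxazolone for 90 minutes at room temperature. Streptavidin capture followed, with quantification by triplicate qPCR and Illumina sequencing. Catalytic enhancement is reported as median kA over the uncatalyzed rate, the low-activity peak of a bimodal Gaussian fit to the data.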

biotinyl-Met-oxazolone = experiment: self-aminoacylation, catalytic enhancement (BMO) (fold over background); higher = more active; k-Seq, kA / k0A0; sequences stand for … in GGGAAUGGAUCCACAUCUACGAAUUC…UUCACUGCAGACUUGACGAAGCUG
Outline: as §1

biotinyl-Phe-oxazolone = experiment: self-aminoacylation, catalytic enhancement (BFO) (fold over background); higher = more active; k-Seq, kA / k0A0; sequences stand for … in GGGAAUGGAUCCACAUCUACGAAUUC…UUCACUGCAGACUUGACGAAGCUG
Outline: as §1

biotinyl-Trp-oxazolone = experiment: self-aminoacylation, catalytic enhancement (BWO) (fold over background); higher = more active; k-Seq, kA / k0A0; sequences stand for … in GGGAAUGGAUCCACAUCUACGAAUUC…UUCACUGCAGACUUGACGAAGCUG
Outline: as §1

biotinyl-Leu-oxazolone = experiment: self-aminoacylation, catalytic enhancement (BLO) (fold over background); higher = more active; k-Seq, kA / k0A0; sequences stand for … in GGGAAUGGAUCCACAUCUACGAAUUC…UUCACUGCAGACUUGACGAAGCUG
Outline: as §1

biotinyl-Ile-oxazolone = experiment: self-aminoacylation, catalytic enhancement (BIO) (fold over background); higher = more active; k-Seq, kA / k0A0; sequences stand for … in GGGAAUGGAUCCACAUCUACGAAUUC…UUCACUGCAGACUUGACGAAGCUG
Outline: as §1

Sequence: AUUACCCUUGUCAUCUAGUGA [Fam2.1 aminoacylation ribozyme variant]
- self-aminoacylation (biotinyl-Val-oxazolone): 3.81
- self-aminoacylation (biotinyl-Met-oxazolone): 7.09
- self-aminoacylation (biotinyl-Phe-oxazolone): 26.5
- self-aminoacylation (biotinyl-Trp-oxazolone): 8.68
- self-aminoacylation (biotinyl-Leu-oxazolone): 7.22
- self-aminoacylation (biotinyl-Ile-oxazolone): 3.76

Sequence: CUACAUUUCAAGCAAUCGGUC [Fam1B.1 aminoacylation ribozyme variant]
- self-aminoacylation (biotinyl-Val-oxazolone): 0.849
- self-aminoacylation (biotinyl-Met-oxazolone): 0.748
- self-aminoacylation (biotinyl-Phe-oxazolone): 2.41
- self-aminoacylation (biotinyl-Trp-oxazolone): 1.45
- self-aminoacylation (biotinyl-Leu-oxazolone): 0.705
- self-aminoacylation (biotinyl-Ile-oxazolone): 0.887

Sequence: AUUACCCUGAUCAUCUAGUGA [Fam2.1 aminoacylation ribozyme variant]
- self-aminoacylation (biotinyl-Val-oxazolone): 6.47
- self-aminoacylation (biotinyl-Met-oxazolone): 13.5
- self-aminoacylation (biotinyl-Phe-oxazolone): 56.9
- self-aminoacylation (biotinyl-Trp-oxazolone): 15.6
- self-aminoacylation (biotinyl-Leu-oxazolone): 11.2
- self-aminoacylation (biotinyl-Ile-oxazolone): 5.67

Sequence: CCACAGUACAAGCAAUCGGUC [Fam1B.1 aminoacylation ribozyme variant]
- self-aminoacylation (biotinyl-Val-oxazolone): 1.24
- self-aminoacylation (biotinyl-Met-oxazolone): 1.27
- self-aminoacylation (biotinyl-Phe-oxazolone): 1.77
- self-aminoacylation (biotinyl-Trp-oxazolone): 0.861
- self-aminoacylation (biotinyl-Leu-oxazolone): 1.03
- self-aminoacylation (biotinyl-Ile-oxazolone): 1.17

Sequence: AGGUUUGCUACUAGUCGCAAG [Fam3.1 aminoacylation ribozyme variant]
- self-aminoacylation (biotinyl-Val-oxazolone): 1.69
- self-aminoacylation (biotinyl-Met-oxazolone): 1.55
- self-aminoacylation (biotinyl-Phe-oxazolone): 2.49
- self-aminoacylation (biotinyl-Trp-oxazolone): 1.77
- self-aminoacylation (biotinyl-Leu-oxazolone): 1.84
- self-aminoacylation (biotinyl-Ile-oxazolone): 1.35

Sequence: AUUACCCUGGUCAUCUAGUGA [Fam2.1 aminoacylation ribozyme variant]
- self-aminoacylation (biotinyl-Val-oxazolone): 4.83
- self-aminoacylation (biotinyl-Met-oxazolone): 9.61
- self-aminoacylation (biotinyl-Phe-oxazolone): 42.9
- self-aminoacylation (biotinyl-Trp-oxazolone): 11.3
- self-aminoacylation (biotinyl-Leu-oxazolone): 9.15
- self-aminoacylation (biotinyl-Ile-oxazolone): 4.51

Sequence: UUUCAGCUAGGUCAUCGGGUG [Fam2.2 aminoacylation ribozyme variant]
- self-aminoacylation (biotinyl-Val-oxazolone): 6.04
- self-aminoacylation (biotinyl-Met-oxazolone): 5.9
- self-aminoacylation (biotinyl-Phe-oxazolone): 39
- self-aminoacylation (biotinyl-Trp-oxazolone): 7.4
- self-aminoacylation (biotinyl-Leu-oxazolone): 6.61
- self-aminoacylation (biotinyl-Ile-oxazolone): 4.98

Sequence: AUUCAUCUAGGUAAUCGGGUG [Fam2.2 aminoacylation ribozyme variant]
- self-aminoacylation (biotinyl-Val-oxazolone): 1.73
- self-aminoacylation (biotinyl-Met-oxazolone): 3.07
- self-aminoacylation (biotinyl-Phe-oxazolone): 19.5
- self-aminoacylation (biotinyl-Trp-oxazolone): 2.6
- self-aminoacylation (biotinyl-Leu-oxazolone): 4.09
- self-aminoacylation (biotinyl-Ile-oxazolone): 1.95

Sequence: AUUACGCUGGUAAUCGAGUGA [Fam2.1 aminoacylation ribozyme variant]
- self-aminoacylation (biotinyl-Val-oxazolone): 2.77
- self-aminoacylation (biotinyl-Met-oxazolone): 5.48
- self-aminoacylation (biotinyl-Phe-oxazolone): 18.7
- self-aminoacylation (biotinyl-Trp-oxazolone): 7.02
- self-aminoacylation (biotinyl-Leu-oxazolone): 5.76
- self-aminoacylation (biotinyl-Ile-oxazolone): 2.84

Sequence: AAGUUUGCUAAUAGACGCAAG [Fam3.1 aminoacylation ribozyme variant]
- self-aminoacylation (biotinyl-Val-oxazolone): 0.587
- self-aminoacylation (biotinyl-Met-oxazolone): 0.477
- self-aminoacylation (biotinyl-Phe-oxazolone): 0.87
- self-aminoacylation (biotinyl-Trp-oxazolone): 0.574
- self-aminoacylation (biotinyl-Leu-oxazolone): 0.459
- self-aminoacylation (biotinyl-Ile-oxazolone): 0.526

Sequence: AUUACGCUGGUCCUCGAGUGA [Fam2.1 aminoacylation ribozyme variant]
- self-aminoacylation (biotinyl-Val-oxazolone): 4.14
- self-aminoacylation (biotinyl-Met-oxazolone): 6.22
- self-aminoacylation (biotinyl-Phe-oxazolone): 44.8
- self-aminoacylation (biotinyl-Trp-oxazolone): 6.54
- self-aminoacylation (biotinyl-Leu-oxazolone): 6.05
- self-aminoacylation (biotinyl-Ile-oxazolone): 4.15

Sequence: AUUCACCUAGGUCUUCGGGUU [Fam2.2 aminoacylation ribozyme variant]
- self-aminoacylation (biotinyl-Val-oxazolone): 2.98
- self-aminoacylation (biotinyl-Met-oxazolone): 3.09
- self-aminoacylation (biotinyl-Phe-oxazolone): 13.8
- self-aminoacylation (biotinyl-Trp-oxazolone): 2.94
- self-aminoacylation (biotinyl-Leu-oxazolone): 3.66
- self-aminoacylation (biotinyl-Ile-oxazolone): 2.82

Sequence: CAACUUCAACCAAUCGGUCUG [Fam1A.1 aminoacylation ribozyme variant]
- self-aminoacylation (biotinyl-Val-oxazolone): 1.61
- self-aminoacylation (biotinyl-Met-oxazolone): 1.67
- self-aminoacylation (biotinyl-Phe-oxazolone): 66.9
- self-aminoacylation (biotinyl-Trp-oxazolone): 33.2
- self-aminoacylation (biotinyl-Leu-oxazolone): 2.41
- self-aminoacylation (biotinyl-Ile-oxazolone): 1.37

Sequence: CUACUGCAAACAAUCGGUCUU [Fam1A.1 aminoacylation ribozyme variant]
- self-aminoacylation (biotinyl-Val-oxazolone): 0.836
- self-aminoacylation (biotinyl-Met-oxazolone): 0.963
- self-aminoacylation (biotinyl-Phe-oxazolone): 1.06
- self-aminoacylation (biotinyl-Trp-oxazolone): 0.857
- self-aminoacylation (biotinyl-Leu-oxazolone): 0.953
- self-aminoacylation (biotinyl-Ile-oxazolone): 0.974

Sequence: CCUCACUUCAAGCAAUCGGUC [Fam1B.1 aminoacylation ribozyme variant]
- self-aminoacylation (biotinyl-Val-oxazolone): 1.21
- self-aminoacylation (biotinyl-Met-oxazolone): 1.07
- self-aminoacylation (biotinyl-Phe-oxazolone): 55.7
- self-aminoacylation (biotinyl-Trp-oxazolone): 22.4
- self-aminoacylation (biotinyl-Leu-oxazolone): 1.58
- self-aminoacylation (biotinyl-Ile-oxazolone): 1.07

Sequence: CCACACUUCAAGCAUUUGGUC [Fam1B.1 aminoacylation ribozyme variant]
- self-aminoacylation (biotinyl-Val-oxazolone): 0.851
- self-aminoacylation (biotinyl-Met-oxazolone): 0.691
- self-aminoacylation (biotinyl-Phe-oxazolone): 0.631
- self-aminoacylation (biotinyl-Trp-oxazolone): 0.912
- self-aminoacylation (biotinyl-Leu-oxazolone): 0.77
- self-aminoacylation (biotinyl-Ile-oxazolone): 0.835

Sequence: CUACUUCAAACUAUUGGUCUG [Fam1A.1 aminoacylation ribozyme variant]
- self-aminoacylation (biotinyl-Val-oxazolone): 0.869
- self-aminoacylation (biotinyl-Met-oxazolone): 0.897
- self-aminoacylation (biotinyl-Phe-oxazolone): 0.825
- self-aminoacylation (biotinyl-Trp-oxazolone): 0.501
- self-aminoacylation (biotinyl-Leu-oxazolone): 0.92
- self-aminoacylation (biotinyl-Ile-oxazolone): 0.995

Sequence: GUACUUCAAACAAUCGGUGUG [Fam1A.1 aminoacylation ribozyme variant]
- self-aminoacylation (biotinyl-Val-oxazolone): 1.97
- self-aminoacylation (biotinyl-Met-oxazolone): 2.77
- self-aminoacylation (biotinyl-Phe-oxazolone): 10.4
- self-aminoacylation (biotinyl-Trp-oxazolone): 10.2
- self-aminoacylation (biotinyl-Leu-oxazolone): 3.35
- self-aminoacylation (biotinyl-Ile-oxazolone): 2.12

Sequence: CUACUUCAGCCAAUCGGUCUG [Fam1A.1 aminoacylation ribozyme variant]
- self-aminoacylation (biotinyl-Val-oxazolone): 0.673
- self-aminoacylation (biotinyl-Met-oxazolone): 0.713
- self-aminoacylation (biotinyl-Phe-oxazolone): 0.64
- self-aminoacylation (biotinyl-Trp-oxazolone): 0.425
- self-aminoacylation (biotinyl-Leu-oxazolone): 0.842
- self-aminoacylation (biotinyl-Ile-oxazolone): 0.691

Sequence: CAACACUUCAGGCAAUCGGUC [Fam1B.1 aminoacylation ribozyme variant]
- self-aminoacylation (biotinyl-Val-oxazolone): 1.19
- self-aminoacylation (biotinyl-Met-oxazolone): 1.12
- self-aminoacylation (biotinyl-Phe-oxazolone): 1.27
- self-aminoacylation (biotinyl-Trp-oxazolone): 1.3
- self-aminoacylation (biotinyl-Leu-oxazolone): 1.34
- self-aminoacylation (biotinyl-Ile-oxazolone): 1.43

Sequence: CCGCACUUCAAGCAUUCGGUC [Fam1B.1 aminoacylation ribozyme variant]
- self-aminoacylation (biotinyl-Val-oxazolone): 2.28
- self-aminoacylation (biotinyl-Met-oxazolone): 1.85
- self-aminoacylation (biotinyl-Phe-oxazolone): 1.88
- self-aminoacylation (biotinyl-Trp-oxazolone): 1.76
- self-aminoacylation (biotinyl-Leu-oxazolone): 1.62
- self-aminoacylation (biotinyl-Ile-oxazolone): 2.17

Sequence: AUUAACCUGGUCAUAGAGUGA [Fam2.1 aminoacylation ribozyme variant]
- self-aminoacylation (biotinyl-Val-oxazolone): 2.55
- self-aminoacylation (biotinyl-Met-oxazolone): 4.3
- self-aminoacylation (biotinyl-Phe-oxazolone): 17.4
- self-aminoacylation (biotinyl-Trp-oxazolone): 6.17
- self-aminoacylation (biotinyl-Leu-oxazolone): 4.78
- self-aminoacylation (biotinyl-Ile-oxazolone): 2.31

Sequence: AAUACCCUGGCCAUCGAGUGA [Fam2.1 aminoacylation ribozyme variant]
- self-aminoacylation (biotinyl-Val-oxazolone): 1.64
- self-aminoacylation (biotinyl-Met-oxazolone): 2.08
- self-aminoacylation (biotinyl-Phe-oxazolone): 2.33
- self-aminoacylation (biotinyl-Trp-oxazolone): 3.4
- self-aminoacylation (biotinyl-Leu-oxazolone): 2.71
- self-aminoacylation (biotinyl-Ile-oxazolone): 1.85
